“And” between values parts separate entries of the source, which are not always exact repeats. Equal values may be shown once.
Conditions: Equus caballus, pH 5, 15 °C, Abs, CD, Fluorescence, Sodium acetate 0.1 M, reversible: Yes
[1] = GdnHCl, transition: 3, structure 1AKK

Chain of Cytochrome c H34N, P00004 (P00004 whole entry H34N): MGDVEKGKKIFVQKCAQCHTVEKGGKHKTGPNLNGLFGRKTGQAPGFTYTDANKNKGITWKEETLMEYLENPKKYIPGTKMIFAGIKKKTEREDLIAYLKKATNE
Chain of Cytochrome c wild type, P00004 (P00004 whole entry): as the sequence (P00004 whole entry H34N) above, with N34H counted along it

Substance | denaturant m value (GdnHCl, structure 1AKK) | unfolding free energy (GdnHCl, structure 1AKK) | denaturant m value [1] | denaturant midpoint (higher = more stable) [1] | unfolding free energy [1] | denaturant m value (Urea, structure 1AKK) | unfolding free energy (Urea, structure 1AKK) | denaturant midpoint (higher = more stable) (Urea, transition: 3, structure 1AKK) | denaturant m value (GdnHCl) | unfolding free energy (GdnHCl) | denaturant m value (GdnHCl, transition: 3) | denaturant midpoint (higher = more stable) (GdnHCl, transition: 3)
Cytochrome c H34N, P00004 | 4.8 kcal/mol/M | 10.8 kcal/mol | 1.7 kcal/mol/M and 3.08 kcal/mol/M | 2.07 M and 2.34 M | 3.5 kcal/mol and 7.3 kcal/mol | 2.43 kcal/mol/M | 10.5 kcal/mol | 4 M and 4.81 M |  |  |  | 
Cytochrome c wild type, P00004 |  |  |  |  |  |  |  |  | 4.39 kcal/mol/M | 9.8 kcal/mol | 1.34 kcal/mol/M and 3.05 kcal/mol/M | 1.5 M and 2.55 M

Reference: FireProtDB (doi:10.1016/j.jmb.2006.01.055)
